Patent US20240301385, “DNA MODIFYING ENZYMES AND ACTIVE FRAGMENTS AND VARIANTS THEREOF AND METHODS OF USE” (LIFEEDIT THERAPEUTICS, INC., published 2024)

T1: APG09980-L16-nAPG07433.1 cytosine base editor (synthetic)
T1 chain: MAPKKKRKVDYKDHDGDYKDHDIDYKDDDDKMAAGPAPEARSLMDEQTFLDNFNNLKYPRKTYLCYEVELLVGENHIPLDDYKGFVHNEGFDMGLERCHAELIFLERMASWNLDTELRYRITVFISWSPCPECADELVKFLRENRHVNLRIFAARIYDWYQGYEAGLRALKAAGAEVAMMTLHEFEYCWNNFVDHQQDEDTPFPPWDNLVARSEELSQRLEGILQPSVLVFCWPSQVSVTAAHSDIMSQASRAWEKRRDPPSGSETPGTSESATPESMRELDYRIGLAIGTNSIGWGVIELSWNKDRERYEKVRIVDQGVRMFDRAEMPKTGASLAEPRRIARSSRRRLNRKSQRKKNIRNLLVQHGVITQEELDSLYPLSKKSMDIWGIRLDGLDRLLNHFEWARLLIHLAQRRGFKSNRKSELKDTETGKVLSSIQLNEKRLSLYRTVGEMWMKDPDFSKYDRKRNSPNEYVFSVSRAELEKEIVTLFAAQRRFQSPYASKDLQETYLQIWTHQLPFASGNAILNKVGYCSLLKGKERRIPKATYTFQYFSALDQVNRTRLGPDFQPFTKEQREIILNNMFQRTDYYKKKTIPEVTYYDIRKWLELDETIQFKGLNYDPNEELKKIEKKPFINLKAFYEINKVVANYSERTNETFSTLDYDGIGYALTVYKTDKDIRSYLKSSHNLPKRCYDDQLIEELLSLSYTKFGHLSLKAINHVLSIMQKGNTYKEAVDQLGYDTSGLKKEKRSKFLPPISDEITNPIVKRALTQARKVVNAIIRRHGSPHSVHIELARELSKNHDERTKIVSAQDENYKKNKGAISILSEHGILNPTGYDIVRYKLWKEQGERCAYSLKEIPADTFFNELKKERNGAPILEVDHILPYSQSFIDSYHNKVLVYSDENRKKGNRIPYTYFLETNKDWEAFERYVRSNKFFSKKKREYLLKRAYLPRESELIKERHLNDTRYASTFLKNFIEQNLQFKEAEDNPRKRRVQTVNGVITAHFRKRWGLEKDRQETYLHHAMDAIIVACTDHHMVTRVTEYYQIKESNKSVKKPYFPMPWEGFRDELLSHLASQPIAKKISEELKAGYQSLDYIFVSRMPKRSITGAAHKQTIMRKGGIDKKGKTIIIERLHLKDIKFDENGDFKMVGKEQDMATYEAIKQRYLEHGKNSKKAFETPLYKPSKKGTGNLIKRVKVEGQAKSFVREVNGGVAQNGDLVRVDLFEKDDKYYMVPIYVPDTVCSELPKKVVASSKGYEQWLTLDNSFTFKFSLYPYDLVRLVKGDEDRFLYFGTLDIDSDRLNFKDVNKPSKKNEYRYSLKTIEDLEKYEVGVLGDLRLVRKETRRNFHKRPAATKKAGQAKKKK

B1: SGN000930 sgRNA ; SGN000930 target (ssRNA ; dsDNA)
RNA: GAACAACUCAAAUGGAAAUGAAUAUGUCAUAGUUCCAUGAAAGCCAAAAGUGGCUUUGAUGUUUCUAUGAUAAGGGUUUCGGCCCGUGGCGUCGGGGAUCGCCUGCCCAUUCCGAUGGGCUUCUCCCCAUUUAUU
DNA 1: GAACAACTCAAATGGAAATGAATAT
DNA 2: ATATTCATTTCCATTTGAGTTGTTC
B2: SGN000169 sgRNA ; SGN000169 target (ssRNA ; dsDNA)
RNA: CACAUCUCGAGCAAGACGUUGUCAUAGUUCCAUUAAAGCCAAAAGUGGCUUUGAUGUUUCUAUGAUAAGGGUUUCGACCCGUGGCGUCGGGGAUCGCCUGCCCAUUGAAAUGGGCUUCUCCCCAUUUAUU
DNA 1: CACATCTCGAGCAAGACGTT
DNA 2: AACGTCTTGCTCGAGATGTG

Target: T1, APG09980-L16-nAPG07433.1 cytosine base …
Assay: cell_activity; HEK293FT; PAM SEQ 152
Settings: tags: SV40 NLS, 3xFLAG N-term; nucleoplasmin NLS C-term
Outline: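 Editing read out by next-generation sequencing (MiSeq 2×250) of PCR amplicons spanning the target site, analysed for INDELs or % cytosine conversion per position (position 1 nearest PAM).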

Binder | activity [% mutated reads]
B1 | 25.2
B2 | 24.8
